Results as given in publication PMC6691574.

Tests used:
[1] = fluorescent FA uptake kit, time course, SGC 7901; conditions: glycan lost; control: wild-type CD36
[2] = Nile red staining after PA, SGC 7901; conditions: glycan lost; control: wild-type CD36

| Protein | other: transport activity [1] | other: transport activity [2] |
| --- | --- | --- |
| CD36: S468A (protein) parent chain: MGCDRNCGLIAGAVIGAVLAVFGGILMPVGDLLIQKTIKKQVVLEEGTIAFKNWVKTGTEVYRQFWIFDVQNPQEVMMNSSNIQVKQRGPYTYRVRFLAKENVTQDAEDNTVSFLQPNGAIFEPSLSVGTEADNFTVLNLAVAAASHIYQNQFVQMILNSLINKSKSSMFQVRTLRELLWGYRDPFLSLVPYPVTTTVGLFYPYNNTADGVYKVFNGKDNISKVAIIDTYKGKRNLSYWESHCDMINGTDAASFPPFVEKSQVLQFFSSDICRSIYAVFESDVNLKGIPVYRFVLPSKAFASPVENPDNYCFCTEKIISKNCTSYGVLDISKCKEGRPVYISLPHFLYASPDVSEPIDGLNPNEEEHRTYLDIEPITGFTLQFAKRLQVNLLVKPSEKIQVLKNLKRNYIVPILWLNETGTIGDEKANMFRSQVTGKINLLGLIEMILLSVGVVMFVAFMISYCACRSKTIK | decreases | decreases |
| CD36: S468A/T470A (protein) parent chain: MGCDRNCGLIAGAVIGAVLAVFGGILMPVGDLLIQKTIKKQVVLEEGTIAFKNWVKTGTEVYRQFWIFDVQNPQEVMMNSSNIQVKQRGPYTYRVRFLAKENVTQDAEDNTVSFLQPNGAIFEPSLSVGTEADNFTVLNLAVAAASHIYQNQFVQMILNSLINKSKSSMFQVRTLRELLWGYRDPFLSLVPYPVTTTVGLFYPYNNTADGVYKVFNGKDNISKVAIIDTYKGKRNLSYWESHCDMINGTDAASFPPFVEKSQVLQFFSSDICRSIYAVFESDVNLKGIPVYRFVLPSKAFASPVENPDNYCFCTEKIISKNCTSYGVLDISKCKEGRPVYISLPHFLYASPDVSEPIDGLNPNEEEHRTYLDIEPITGFTLQFAKRLQVNLLVKPSEKIQVLKNLKRNYIVPILWLNETGTIGDEKANMFRSQVTGKINLLGLIEMILLSVGVVMFVAFMISYCACRSKTIK | decreases | decreases |
| CD36: T470A (protein) parent chain: MGCDRNCGLIAGAVIGAVLAVFGGILMPVGDLLIQKTIKKQVVLEEGTIAFKNWVKTGTEVYRQFWIFDVQNPQEVMMNSSNIQVKQRGPYTYRVRFLAKENVTQDAEDNTVSFLQPNGAIFEPSLSVGTEADNFTVLNLAVAAASHIYQNQFVQMILNSLINKSKSSMFQVRTLRELLWGYRDPFLSLVPYPVTTTVGLFYPYNNTADGVYKVFNGKDNISKVAIIDTYKGKRNLSYWESHCDMINGTDAASFPPFVEKSQVLQFFSSDICRSIYAVFESDVNLKGIPVYRFVLPSKAFASPVENPDNYCFCTEKIISKNCTSYGVLDISKCKEGRPVYISLPHFLYASPDVSEPIDGLNPNEEEHRTYLDIEPITGFTLQFAKRLQVNLLVKPSEKIQVLKNLKRNYIVPILWLNETGTIGDEKANMFRSQVTGKINLLGLIEMILLSVGVVMFVAFMISYCACRSKTIK | decreases | decreases |
